Each block holds one substance with its values, some of them ahead of it.
What was measured:
[1] = target: Hsp70 expressed in E. coli (Hsp70 E. coli) (human) (UniProt P0DMV8); experiment: native MS; 1:1 mixture of 13C-labeled Hsp70 E. coli and Hsp70Sf9 at 8 μM; parameters designed to preserve non-covalent interactions
[2] = target: Hsp70 expressed in E. coli (Hsp70 E. coli) (human) (UniProt P0DMV8); experiment: native MS; 1:1 ratio of 13C-labeled Hsp70 E. coli and Hsp70Sf9 with catalytic amounts of Hsp40 and ATP
[3] = target: Hsp70 expressed in E. coli (Hsp70 E. coli) (human) (UniProt P0DMV8); experiment: native MS; Hsp70 E. coli at a higher concentration under which dimerization occurs, with phosphatase, 48 hr (Figures S1A and S1B)
Yeast Hsp40 (yeast) = Yeast Hsp40 (yeast) (UniProt P25491); experiment: native MS; Hsp40 alone, 100 mM ammonium acetate pH 7.5 (Figure S5C)
[4] = target: Hsp70 expressed in Sf9 insect cells (Hsp70Sf9) (human) (UniProt P0DMV8); experiment: native MS; 1:1 mixture of 13C-labeled Hsp70 E. coli and Hsp70Sf9 at 8 μM; parameters designed to preserve non-covalent interactions
[5] = target: Hsp90_(2)Hop complex (human) (UniProt P07900); experiment: native MS; Hsp90 and Hop with either Hsp70 E. coli or Hsp70Sf9, in the absence of Hsp40
[6] = target: Hsp70 expressed in Sf9 insect cells (Hsp70Sf9) (human) (UniProt P0DMV8); experiment: cross-linking; BS3 on Hsp70Sf9 in excess ATP (also ADP, ATPγS); SDS-PAGE, monomer and dimer bands digested with trypsin, LC-MS/MS
[7] = target: Hsp70 expressed in Sf9 insect cells (Hsp70Sf9) (human) (UniProt P0DMV8); experiment: native MS; 1:1 ratio of 13C-labeled Hsp70 E. coli and Hsp70Sf9 with catalytic amounts of Hsp40 and ATP
[8] = target: Hsp70 expressed in Sf9 insect cells (Hsp70Sf9) (human) (UniProt P0DMV8); experiment: native MS; 1:1 mixture of 3 μM 13C-labeled Hsp70 E. coli and Hsp70Sf9, incubated without phosphatase in 100 mM AmAc pH 7.5 at 4°C for 16 hr; high backing pressure
[9] = target: Hsp70 expressed in Sf9 insect cells (Hsp70Sf9) (human) (UniProt P0DMV8); experiment: native MS; 2 μM Hsp70Sf9, 0.5 μM Hsp40, 200 μM ATP/Mg2+, binding buffer with 50, 100 or 300 mM KCl, 1 hr at room temperature; buffer exchanged to 100 mM AmAc
[10] = target: Hsp70 E. coli T504E phosphomimic variant (human) (UniProt P0DMV8); experiment: native MS; labeled wild-type Hsp70 E. coli and the T504E variant examined in a 1:1 ratio (Figure S1C)
[11] = target: Hsp70 E. coli V438F/T504E substrate-binding-deficient variant (human) (UniProt P0DMV8); experiment: not stated; dimerization of the V438F/T504E mutant (Figure S4B); method not given
Hsp90 (human) [12] = target: Hsp90 (human) (UniProt P07900); experiment: native MS; Hsp90 and Hop with either Hsp70 E. coli or Hsp70Sf9, in the absence of Hsp40
Hsp90 (human) [13] = target: Hsp90 (human) (UniProt P07900); experiment: native MS; stoichiometric amounts of p23 added to the client-loading complex Hsp90_(2)Hsp70_(2)HopGR
Hsp90 (human) [14] = target: Hsp90 (human) (UniProt P07900); experiment: native MS; Hsp70GR complex formed with catalytic Hsp40 (0.3 μM) and ATP, then incubated with Hsp90_(2)Hop; Hsp90, Hop, Hsp70 and GR equimolar (1 μM each), or two Hsp70 per Hsp90_(2)
Hsp70 = experiment: comparative BS3 cross-linking with LC-MS/MS; conditions: reference: Hsp70 expressed in E. coli; sites T504

Substance: Hsp70 expressed in E. coli (Hsp70 E. coli) (from UniProt P0DMV8 1-641) (natural protein)
stoichiometry N [1]: 2
stoichiometry N [2]: 2
stoichiometry N [3]: 2

Substance: Yeast Hsp40 (from UniProt P25491 1-409) (natural protein)
stoichiometry N (Yeast Hsp40 (yeast)): 2

Substance: Hsp70 expressed in Sf9 insect cells (Hsp70Sf9) (from UniProt P0DMV8 1-641) (natural protein)
stoichiometry N [4]: 2
stoichiometry N [5]: 2
stoichiometry N [6]: 2
stoichiometry N [7]: 2
stoichiometry N [8]: 2
stoichiometry N [9]: 2

Substance: Hsp70 E. coli T504E phosphomimic variant (from UniProt P0DMV8 1-641) (natural protein)
stoichiometry N [10]: 2

The remaining lines, values ahead:

stoichiometry N [11]: 2
Substance: Hsp70 E. coli V438F/T504E substrate-binding-deficient variant (from UniProt P0DMV8 1-641) (natural protein)

stoichiometry N (Hsp90 (human) [12]): 2
stoichiometry N (Hsp90 (human) [13]): 2
stoichiometry N (Hsp90 (human) [14]): 2
Substance: Hsp90 (from UniProt P07900 1-732) (natural protein)

other: K569-K108 cross-link intensity ratio (Hsp70): stronger; reference 1.0
Substance: Hsp70 Hsp70 expressed in Sf9 cells

— PMC4431665
